In patent US20210047373A1, “BETA BARREL POLYPEPTIDES AND METHODS FOR THEIR USE” (UNIVERSITY OF WASHINGTON, priority 2018, published 2021):

Experiments:
[1] = Chromophore titration, fit to single binding site isotherm: DFHO; details: n=1 titration; ± SD of the fit; Table 3C
Description: (§1) Table 3A-C. Brightness and chromophore affinities of selected mFAP variants. Fluorescence brightness measurements at 10 μM (top table) and 100 nM (middle table) chromophore concentrations were normalized from 0 to 1 across all three chromophores (DFHBI, DFHBI-1T, and DFHO), and the normalized values for two protein concentrations tested for each chromophore at each chromophore concentration were averaged and standard deviations of the average computed. Reported values are the normalized averages and standard deviations of the means for each chromophore concentration and each chromophore. Reported relative densitometry values are the relative densitometry values normalized from 0 to 1 and represent how well each design expresses relative to one another in Lemo21(DE3) E. coli cultures. Thermodynamic dissociation constants (bottom table) are obtained by non-linear least squares fitting of chromophore titrations (n=1) to a single binding site isotherm, and values reported with the standard deviation of the fit. Where the obtained Kd values are below the protein concentration tested, the Kd and standard deviation of the fit are reported in parentheses. Values with “N/D” were not determined.

[2] = Chromophore titration, fit to single binding site isotherm: DFHBI-1T; details: n=1 titration; ± SD of the fit; Table 3C
Description: as §1

[3] = DFHBI titration of Ca2+-responsive mFAP variants in excess or absence of Ca2+; assay type: binding; details: DFHBI titration in absence and presence of Ca^2+, n=1
Excerpt: FIG. 23. In vitro fluorescence characterization of Ca^2+-responsive mFAP variants. […] Normalized fluorescence values (n=1) are fit to a sigmoid equation using non-linear least squares fitting (lines). […] Error bars represent the standard deviation of the mean of 3 technical replicates. The means are fit to a sigmoid equation (for positive allostery) or inverse sigmoid equation (for negative allostery) with Hill coefficients of 1 using non-linear least squares fitting (lines) to extract reported Kd values in Table 5.
DFHBI Kd^+(in excess Ca^2+), DFHBI Kd^−(in absence of Ca^2+), and Ca^2+Kd (in excess DFHBI) are computed by fitting the normalized fluorescence readouts from titrations to a single binding site isotherm equation with Hill coefficient of 1 using non-linear least squares fitting. Standard deviations of the fit are reported. Hill coefficients are reported for fitting the titration data to a single binding site isotherm with variable Hill coefficient using non-linear least squares fitting, and the standard deviation of the fit are reported. For positive allosteric modulators, Kd^−/Kd^+ is reported, and for negative allosteric modulators, Kd^+/Kd^− is reported. […]

[4] = Fluorescence brightness with DFHBI-1T; assay type: biochemical; details: normalized 0 to 1 across all three chromophores; average ± SD of two protein concentrations
Description: as §1

[5] = Fluorescence activation / brightness with DFHBI; assay type: biochemical; details: for Fluorescence brightness, 100 nM DFHBI / Fluorescence brightness, 10 μM DFHBI: normalized 0 to 1 across all three chromophores, average ± SD of two protein concentrations
Description: (§2) Fluorescence binding assay. Protein-activated DFHBI fluorescence signals were measured in 96-well plate format (Corning 3650) on a Synergy neo2 plate reader (BioTek, Inc) with λex=450 nm or 460 nm and λem=500 nm or 510 nm. Binding reactions were performed at […] in PBS pH7.4 buffer. Protein concentrations were determined by 280 nm absorbance as described above. DFHBI (Lucerna, Inc) were resuspended in DMSO as instructed to make 100 mM stock and diluted in PBS to 0.5-10 μM. Approximate emission spectra were recorded for active designs from 490 to 600 nm.
as §1

[6] = Fluorescence brightness with DFHO; assay type: biochemical; details: normalized 0 to 1 across all three chromophores; average ± SD of two protein concentrations
Description: as §1

[7] = Chromophore titration, fit to single binding site isotherm: DFHBI; details: for Kd: n=1 titration, ± SD of the fit, Table 3C, read-out: DFHBI Kd
Description: as §2, §1

E. coli cells = assay: Confocal imaging of E. coli expressing mFAP2a or mFAP2b labeled with chromophore; assay type: cell-based; details: for Chromophore selectivity, DFHBI versus DFHBI-1T: E. coli imaging
Excerpt: FIG. 20: Characterization of brighter and chromophore-specific mFAP variants (mFAP2a and mFAP2b). (a) Design model of de novo β-barrel variant mFAP2b protein backbone (cartoon) bound to small molecule chromophore DFHBI (sticks). (b, c) Chemical structures of the chromophores DFHBI and DFHBI-1T, respectively. (d, e) In vitro titration of (d) DFHBI or (e) DFHBI-1T with purified mFAP2, mFAP2b, and mFAP2a proteins. mFAP2a/DFHBI, mFAP2a/DFHBI-1T, and mFAP2b/DFHBI complexes are brighter than the mFAP2/DFHBI complex. mFAP2a has higher affinity toward DFHBI compared to mFAP2b. mFAP2a binds DFHBI-1T with higher affinity than mFAP2 and the complex has brighter fluorescence than the DFHBI systems. Error bars represent standard deviation of the mean of 8 technical replicates. Shown are the non-linear least squares fits to a single binding-site isotherm equation (lines). […] (f-i) The images on the left of each panel were acquired using a laser scanning confocal fluorescence microscope and show pseudo-colored normalized fluorescence intensity values per pixel. Scale bars represent 10 microns. In the design models shown on the right of each panel the residues unique to mFAP2b (V13, M15) and residues unique to mFAP2a (A13, F15) are shown as sticks. Intermolecular hydrogen bonds to the chromophore are shown as black dotted lines. […]
It was hypothesized that a commercially-available variant of the DFHBI chromophore with a trifluoromethyl group, DFHBI-1T (FIG. 20 c), could pack into the void without causing steric clashes with nearby amino acid side-chains and could therefore fit into the mFAP2a binding pocket, while […] would result in steric clashes in the mFAP2b pocket. Studying the fluorescence of mFAP2a and mFAP2b in the presence of DFHBI-1T experimentally validated this hypothesis. […] Based on the absolute and relative quantum yields measured for these four complexes, the brightest protein-chromophore combination is mFAP2a with DFHBI-1T, with an absolute quantum yield of 12.9% (˜3.5-fold dimmer than EGFP).

fixed COS-7 cells = assay: Photostability under continuous wave imaging; assay type: cell-based; details: endoplasmic reticulum, 50 μM DFHBI, frame 1 to frame 200
Description: FIG. 21: Super-resolution microscopy and photostability of mFAP2a and mFAP2b. (a-g) To show the application of the mFAP system in super-resolution microscopy, mFAP2a and mFAP2b were fused to a designed protein polymerizing into a filament (DHF119). (a) The maximum diameter of the DHF119 fiber fused to the 6×His-tagged mFAP2b was estimated to be ˜22 nm based on the computational design models. (b-d) The DHF119-GS-mFAP2a-6×His fiber was labeled at 5.78 μM DFHBI-1T and (e-f) the DHF119-GS-mFAP2b-6×His was labeled at 1.83 μM DFHBI. Both systems were imaged with (b,e) fluorescence widefield microscopy and (c,f) fluorescence localization microscopy. Scale bars are 1 micron. (d,g) Normalized average intensity profiles between the yellow arrowheads shown in the widefield image (black line) or localization reconstruction (grey line) estimate the diameter of the fluorescent filament. The mean and standard deviation of the mean of the full width half maximum (FWHM) values of the three intensity profiles are annotated, 11-k) Photostability of mFAP2a and mFAP2b complexes with DFHBI and DFHBI-1T compared to AcGFP1. […] Normalized fluorescence intensity images are shown for four regions of interest (ROIs). (h, i) Frames 1 (left) to 200 (right) were acquired under continuous wave imaging at 0.885 Hz (1.13 s/frame). Scale bars are 10 microns. […]

[8] = Photophysical characterization (absorbance, excitation, emission, extinction coefficient, quantum yield); assay type: physicochemical

B1: mFAP2b: SEQ ID NO:69; mFAP2.5 with V67I (protein)
chain: MSRAAQLLPGTWQVTMTNEDGQTSQGQWHFQPRSPYTMDIVAQGTISDGRPIVGYGKATVKTPDTLDIDITYPSLGNIKAQGQITMDSPTQFKWDATTKGENDFHGRLTGTLQRQE
modifications: (1)..(1) optionally absent
Kd [1]: 9.01 ± 1.91 µM | Kd [2]: 42.2 ± 6.03 µM | Allostery between Ca^2+ and DFHBI binding [3]: no allostery | Fluorescence brightness, 100 nM DFHBI-1T [4]: 0.01 ± 0.0 | Fluorescence brightness, 10 μM DFHBI-1T [4]: 0.01 ± 0.0 | DFHBI complex brighter than DFHBI-1T complex ([5]; FIG. 20 d,e): ~70 fold | Brighter than mFAP2.4 ([5]; neutral pH): ~1.3 fold | Brighter than mFAP2.5 ([5]; neutral pH): ~1.2 fold | Fluorescence brightness, 100 nM DFHBI [5]: 0.82 ± 0.02 | Fluorescence brightness, 10 μM DFHBI [5]: 1.0 ± 0.0 | Brighter fluorescence than mFAP1 ([5]; protein at 10-fold higher concentration than DFHBI, peak emission 511 nanometers): approximately 4.5 | Fluorescence brightness, 100 nM DFHO [6]: 0.01 ± 0.0 | Fluorescence brightness, 10 μM DFHO [6]: 0.01 ± 0.0 | Weaker affinity for the chromophore than mFAP2 ([7]; DFHBI): ~14.1 fold | Kd [7]: 1670 ± 80 nM | Fluorescent signal in E. coli with DFHBI-1T (E. coli cells; 10 μM chromophore): does not give a fluorescent signal | Chromophore selectivity, DFHBI versus DFHBI-1T (E. coli cells): pronounced chromophore selectivity

B2: mFAP2a: SEQ ID NO:66 (protein)
chain: MSRAAQLLPGTWQATFTNEDGQTSQGQWHFQPRSPYTMDIVAQGTISDGRPIVGYGKATVKTPDTLDIDITYPSLGNIKAQGQITMDSPTQFKWDATTKGENDFHGRLTGTLQRQE
modifications: (1)..(1) optionally absent
Kd [1]: 8.47 ± 1.99 µM | Kd [2]: 3.7 ± 0.56 µM | Photostability compared to AcGFP1 (fixed COS-7 cells): higher fluorescent signal is retained | Fluorescence brightness, 100 nM DFHBI-1T [4]: 0.59 ± 0.06 | Fluorescence brightness, 10 μM DFHBI-1T [4]: 0.92 ± 0.05 | Brighter fluorescence than mFAP2b ([5]; low DFHBI concentration (554.88 nM), neutral pH): ~1.3 fold | Fluorescence brightness, 100 nM DFHBI [5]: 1.0 ± 0.0 | Fluorescence brightness, 10 μM DFHBI [5]: 0.77 ± 0.12 | Fluorescence brightness, 100 nM DFHO [6]: 0.03 ± 0.01 | Fluorescence brightness, 10 μM DFHO [6]: 0.04 ± 0.0 | Kd [7]: 54.6 ± 10 nM | Absolute quantum yield with DFHBI-1T [8]: 12.9% | Brightness, times dimmer than EGFP ([8]; with DFHBI-1T): ~3.5 fold | Chromophore selectivity, DFHBI versus DFHBI-1T (E. coli cells): pronounced chromophore promiscuity
